Reference: patent US20210388107A1 (BYONDIS B V, published 2021)

Legend:
[1] = molecular target: T1, human SIRPγ, extracellular domain, Avi-FXa-Fc tag (human, biotinylated); assay: SPR, captured biotinylated antigen
T1 construct: also called huSIRPγ
Experimental: (§1) Surface Plasmon Resonance (SPR) assay: Affinity analysis was performed by single cycle kinetics analysis on a Surface Plasmon Resonance apparatus (BiaCore™ T200 system, GE Life Sciences) at 25° C. […] For each step an association time of 150 sec was used, followed by a dissociation time of 600 sec after the highest concentration only, all at a flow rate of 30 μl/min. Regeneration was performed with 6 M guanidine-HCl, 0.25 M NaOH solution (120 sec with flow rate of 30 μl/min). […] Sensorgrams were fitted with a 1:1 Langmuir model for all tested anti-SIRP antibodies. The kinetic parameters (association rate [kₐ], dissociation rate [kd] and binding constant, also referred to as equilibrium dissociation constant or binding affinity [KD]) were calculated using BiaCore™ T200 evaluation software (v3.1).

[2] = molecular target: T2, human SIRPαBIT, extracellular domain 1-370, Avi-FXa-Fc tag (human, biotinylated); assay: SPR, captured biotinylated antigen
T2 construct: also called huSIRPαBIT; v1
T2 sequence (chain, as listed by the source limits assumed): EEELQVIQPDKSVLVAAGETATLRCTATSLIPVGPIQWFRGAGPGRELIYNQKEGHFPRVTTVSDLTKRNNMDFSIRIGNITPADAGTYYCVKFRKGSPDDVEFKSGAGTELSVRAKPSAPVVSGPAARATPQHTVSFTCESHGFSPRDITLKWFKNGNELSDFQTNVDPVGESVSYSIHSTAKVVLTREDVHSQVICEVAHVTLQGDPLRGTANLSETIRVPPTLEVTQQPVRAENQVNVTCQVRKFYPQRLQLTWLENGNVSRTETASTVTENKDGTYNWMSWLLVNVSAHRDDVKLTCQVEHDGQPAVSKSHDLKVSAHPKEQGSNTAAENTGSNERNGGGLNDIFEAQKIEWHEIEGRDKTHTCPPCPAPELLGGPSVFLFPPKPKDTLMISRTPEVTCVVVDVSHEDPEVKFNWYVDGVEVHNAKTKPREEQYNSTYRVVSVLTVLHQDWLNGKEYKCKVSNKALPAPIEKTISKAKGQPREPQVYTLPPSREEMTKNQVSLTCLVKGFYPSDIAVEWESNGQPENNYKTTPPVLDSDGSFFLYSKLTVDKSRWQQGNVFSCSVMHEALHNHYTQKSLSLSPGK
Experimental: as §1

[3] = molecular target: T3, human SIRPβ1v1, extracellular domain, Avi-FXa-Fc tag (human, biotinylated); assay: SPR, captured biotinylated antigen
T3 construct: also called huSIRPβ1v1
T3 sequence (chain, as listed by the source limits assumed): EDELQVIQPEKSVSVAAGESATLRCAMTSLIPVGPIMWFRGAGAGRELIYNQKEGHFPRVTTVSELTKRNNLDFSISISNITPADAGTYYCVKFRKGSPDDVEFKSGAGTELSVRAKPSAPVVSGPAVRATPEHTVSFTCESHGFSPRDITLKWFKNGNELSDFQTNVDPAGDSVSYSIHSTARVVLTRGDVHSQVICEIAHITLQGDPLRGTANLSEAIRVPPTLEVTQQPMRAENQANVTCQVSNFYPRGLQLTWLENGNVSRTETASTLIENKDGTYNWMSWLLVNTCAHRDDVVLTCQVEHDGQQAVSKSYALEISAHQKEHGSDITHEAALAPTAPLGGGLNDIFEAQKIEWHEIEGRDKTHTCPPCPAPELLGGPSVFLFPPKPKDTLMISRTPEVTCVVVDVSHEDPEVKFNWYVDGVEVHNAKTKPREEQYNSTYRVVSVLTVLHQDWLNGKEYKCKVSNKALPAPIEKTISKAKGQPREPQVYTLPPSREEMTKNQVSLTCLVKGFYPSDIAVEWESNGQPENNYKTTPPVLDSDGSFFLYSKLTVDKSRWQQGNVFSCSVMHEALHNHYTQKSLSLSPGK
Experimental: as §1

[4] = molecular target: T4, human SIRPα1 extracellular domain 1-370, Avi-FXa-Fc tag (human, biotinylated); assay: SPR, captured biotinylated antigen
T4 construct: also called huSIRPα1; v2
T4 sequence (chain, as listed by the source limits assumed): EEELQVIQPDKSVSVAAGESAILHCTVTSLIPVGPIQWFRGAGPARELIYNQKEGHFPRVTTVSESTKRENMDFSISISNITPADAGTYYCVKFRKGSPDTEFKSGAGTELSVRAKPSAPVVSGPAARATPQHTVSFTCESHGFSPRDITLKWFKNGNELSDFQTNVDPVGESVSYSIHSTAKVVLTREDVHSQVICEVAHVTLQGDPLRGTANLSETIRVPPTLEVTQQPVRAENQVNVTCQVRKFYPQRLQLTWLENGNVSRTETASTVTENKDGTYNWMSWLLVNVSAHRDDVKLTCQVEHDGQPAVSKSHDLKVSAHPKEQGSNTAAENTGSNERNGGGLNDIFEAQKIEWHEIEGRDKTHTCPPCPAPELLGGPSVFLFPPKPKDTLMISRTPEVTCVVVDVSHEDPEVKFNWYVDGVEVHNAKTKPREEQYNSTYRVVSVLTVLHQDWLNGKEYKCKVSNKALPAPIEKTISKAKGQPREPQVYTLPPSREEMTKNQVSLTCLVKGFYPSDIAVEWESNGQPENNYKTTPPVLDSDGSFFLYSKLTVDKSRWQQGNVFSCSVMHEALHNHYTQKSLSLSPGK
Experimental: as §1

[5] = molecular target: T5, human SIRPαBIT expressed on cells (human, UniProt P78324 31-504); assay: flow cytometry, ExpiCHO-S cells
T5 construct: endogenous on U937 cells or transiently expressed on ExpiCHO-S cells; in the SHP-1 assay a ProLink-tagged form on Jurkat cells; also called huSIRPαBIT; U937 cells (huSIRPαBIT)
Experimental: (§2) After an incubation time of 30 min at 4° C., the cells were washed three times with ice-cold FACS buffer and 50 μl/well secondary mAb (for human antibodies, AffiniPure F(ab′)₂ fragment Goat-anti-human IgG-APC, 1:6,000 dilution, Jackson Immuno Research was added and for mouse antibodies, AffiniPure Fab fragment Goat Anti-Mouse IgG (H+L)-Alexa Fluor 488, 1:1,000 dilution, Jackson Immuno Research was added). After 30 min at 4° C., cells were washed twice and resuspended in 150 μl FACS buffer. Fluorescence intensities were determined by flow cytometry (BD FACSVerse, Franklin Lakes, N.J.) and indicated as the median fluorescence intensity (MFI-Median) for U937 cells and the mean fluorescence intensity (MFI-Mean) for ExpiCHO-S cells. Curves were fitted by nonlinear regression using the sigmoidal dose-response equation with variable slope (four parameters) in GraphPad Prism (version 7.02 for Windows, GraphPad, San Diego, Calif.). EC₅₀ values were calculated as the concentration in μg/ml that gives a response half way between bottom and top of the curve, when using a 4-parameter logistic fit.

[6] = molecular target: T6, human SIRPα1 expressed on cells (human, UniProt P78324 31-504); assay: flow cytometry, ExpiCHO-S cells
T6 construct: whole, on cells; also called huSIRPα1; ExpiCHO-S (huSIRPα1)
Experimental: as §2

[7] = molecular target: T7, human SIRPγ on human CD3+ T-cells (human, UniProt Q9P1W8 29-387); assay: flow cytometry on CD3+ T-cells in PBMC of two healthy individuals, % of positive cells
T7 construct: whole, on cells
T7 sequence (Q9P1W8 29-387): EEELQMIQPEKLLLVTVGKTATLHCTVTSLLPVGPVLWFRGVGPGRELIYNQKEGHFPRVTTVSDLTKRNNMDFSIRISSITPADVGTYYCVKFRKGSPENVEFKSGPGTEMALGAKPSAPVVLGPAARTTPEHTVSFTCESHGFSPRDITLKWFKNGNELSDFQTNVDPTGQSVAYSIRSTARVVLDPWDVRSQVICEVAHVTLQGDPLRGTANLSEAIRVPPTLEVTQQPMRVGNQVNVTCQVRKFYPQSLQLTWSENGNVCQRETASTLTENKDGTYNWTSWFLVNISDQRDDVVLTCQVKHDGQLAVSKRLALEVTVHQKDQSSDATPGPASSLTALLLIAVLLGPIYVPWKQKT
Experimental: (§3) Flow Cytometry assay: Peripheral mononuclear cells (PBMC) were isolated from fresh blood of healthy individuals using Percoll gradient. […] Cells (200,000 cells/well in a 96-well plate) were subsequently incubated in the presence of tested antibodies or control conditions with secondary antibodies only (secondary goat anti-human IgG Alexa 633 F(ab′)₂ fragment, dilution 1:1000, Jackson Immuno Research, and secondary goat anti-mouse IgG Alexa 633 F(ab′)₂ fragment, dilution 1:250, Invitrogen) for 30 min on ice. After that, cells were washed with FACS buffer and resuspended in a mixture of anti-human CD3 FITC antibody (dilution 1:100, Invitrogen) with respective secondary antibody (either anti-human or anti-mouse) and incubated for 30 min in the dark on ice. Afterwards the cells were washed with FACS buffer and resuspended in 150 μl of FACS buffer and fluorescence intensities were determined by flow cytometry (LSRII HTS or LSRFortessa, BD Biosciences, CA, USA) and indicated as the median fluorescence intensity (MFI-Median) and percentage of positive cells.

[8] = molecular target: T5, human SIRPαBIT expressed on cells; assay: flow cytometry, U937 cells
Experimental: as §2

[9] = molecular target: T7, human SIRPγ on human CD3+ T-cells; assay: flow cytometry on CD3+ T-cells in PBMC of two healthy individuals, MFI
Experimental: as §3

[10] = molecular target: T8, human SIRPβ1v2, extracellular domain, Avi-FXa-Fc tag (human, biotinylated); assay: SPR, captured biotinylated antigen
T8 construct: also called huSIRPβ1v2
T8 sequence (chain, as listed by the source limits assumed): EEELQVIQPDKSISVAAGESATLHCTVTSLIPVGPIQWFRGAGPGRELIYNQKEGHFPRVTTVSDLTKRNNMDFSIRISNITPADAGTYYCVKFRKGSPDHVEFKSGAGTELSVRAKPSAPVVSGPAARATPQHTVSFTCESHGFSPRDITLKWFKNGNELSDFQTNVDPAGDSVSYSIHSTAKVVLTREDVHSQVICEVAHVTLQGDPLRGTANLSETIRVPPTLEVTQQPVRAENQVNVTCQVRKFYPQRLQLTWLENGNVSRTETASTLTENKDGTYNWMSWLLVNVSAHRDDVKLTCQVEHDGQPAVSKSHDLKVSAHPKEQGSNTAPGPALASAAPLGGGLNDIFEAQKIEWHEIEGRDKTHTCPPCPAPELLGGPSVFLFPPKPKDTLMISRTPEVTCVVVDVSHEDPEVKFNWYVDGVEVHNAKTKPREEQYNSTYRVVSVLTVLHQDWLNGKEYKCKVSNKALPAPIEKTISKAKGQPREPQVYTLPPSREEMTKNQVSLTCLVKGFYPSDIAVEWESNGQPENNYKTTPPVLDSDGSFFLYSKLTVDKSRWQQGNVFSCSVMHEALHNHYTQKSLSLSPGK
Experimental: as §1

[11] = molecular target: T9, cynomolgus monkey SIRPα, extracellular domain, Avi-FXa-Fc tag (cynomolgus monkey, biotinylated); assay: SPR, captured biotinylated antigen
T9 construct: also called cySIRPα
Experimental: as §1

[12] = molecular target: T10, cynomolgus monkey SIRPα expressed on ExpiCHO-S cells (cynomolgus monkey, UniProt A0A2K5VYQ9 31-507); assay: flow cytometry, ExpiCHO-S cells
T10 construct: whole, on cells; also called cySIRPα; ExpiCHO-S (cySIRPα)
T10 sequence: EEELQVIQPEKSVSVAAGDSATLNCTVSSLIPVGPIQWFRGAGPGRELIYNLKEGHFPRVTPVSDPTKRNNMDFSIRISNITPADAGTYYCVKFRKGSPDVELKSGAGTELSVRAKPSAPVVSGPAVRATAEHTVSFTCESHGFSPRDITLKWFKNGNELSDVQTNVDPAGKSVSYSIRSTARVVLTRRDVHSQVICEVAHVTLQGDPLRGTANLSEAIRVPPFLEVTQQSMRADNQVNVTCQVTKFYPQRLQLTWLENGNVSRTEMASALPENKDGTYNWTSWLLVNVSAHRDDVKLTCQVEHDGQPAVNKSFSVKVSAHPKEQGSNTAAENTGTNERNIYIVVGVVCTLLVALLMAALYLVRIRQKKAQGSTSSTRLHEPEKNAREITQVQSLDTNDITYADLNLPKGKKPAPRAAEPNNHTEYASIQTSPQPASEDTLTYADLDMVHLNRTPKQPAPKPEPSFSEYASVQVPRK
Experimental: as §2

T1 sequence (chain, as listed by the source limits assumed): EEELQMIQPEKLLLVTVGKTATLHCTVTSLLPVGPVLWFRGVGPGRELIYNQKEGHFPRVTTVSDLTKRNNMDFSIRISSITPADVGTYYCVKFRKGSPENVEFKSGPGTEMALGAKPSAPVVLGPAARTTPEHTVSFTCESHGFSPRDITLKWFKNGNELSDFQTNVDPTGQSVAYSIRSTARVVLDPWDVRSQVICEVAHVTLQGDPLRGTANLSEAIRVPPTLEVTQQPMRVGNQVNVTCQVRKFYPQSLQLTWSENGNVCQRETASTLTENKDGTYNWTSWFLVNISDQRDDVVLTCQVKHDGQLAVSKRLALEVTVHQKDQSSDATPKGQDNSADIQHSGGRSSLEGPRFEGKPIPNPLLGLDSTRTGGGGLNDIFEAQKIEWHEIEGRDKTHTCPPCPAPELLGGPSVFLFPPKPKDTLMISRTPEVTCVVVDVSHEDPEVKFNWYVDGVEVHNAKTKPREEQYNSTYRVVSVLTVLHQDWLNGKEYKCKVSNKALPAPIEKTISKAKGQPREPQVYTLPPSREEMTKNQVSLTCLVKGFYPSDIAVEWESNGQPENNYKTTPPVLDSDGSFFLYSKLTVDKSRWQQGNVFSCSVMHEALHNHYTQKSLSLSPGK

Binder | binding result [1] | Kd [2] [nM] | Kd [3] [nM] | Kd [4] [nM] | EC50 [5] [µg/mL] | EC50 [6] [µg/mL] | binding result [7] | EC50 [8] [µg/mL] | binding result [9] | Kd [10] [nM] | Kd [11] [nM] | EC50 [12] [µg/mL]
humanized anti-SIRPα antibody 7 (antibody, human IgG1, kappa, L234A L235A, V domains shown, human IgG1 LALA, kappa; also called mAb 7) VH: RQLVESGGGLVQPGGSLRLSCAASGFSLSSHGISWVRQAPGKGLEWVGTIGTGVITYYASWAKGRFTGSKTSSTAYLQMTSLRAEDTAVYYCARGSAWNDPFDYWGQGTLVTVSS VL: DIVMTQSPSSLSASVGDRVTITCQASQSVYGNNDLAWYQQKPGQAPKLLIYLASTLATGVPSRFSGSGSGTDFTLTISSLQPEDFATYYCLGGGDDEADNTFGQGTKVEIKR | no binding (tested: below 10 RU cut-off; up to 1600 ng/ml) | 0.378 | 1.65 | 0.0171 | 0.2 | 0.2 | no binding | 3.55 | – | – | – | –
humanized anti-SIRPα antibody 9 (antibody, human IgG1, kappa, L234A L235A, V domains shown, human IgG1 LALA, kappa; also called mAb 9) VH: RQLVESGGGLVQPGGSLRLSCAASGFSLSSHGISWVRQAPGKGLEWVGTIGTGVITYYASWAKGRFTGSKTSSTAYLQMTSLRSEDTAVYYCARGSAWNDPFDYWGQGTLVTVSS VL: DIVMTQSPSSLSASVGDRVTITCQASQSVYGNNDLAWYQQKPGQAPKLLIYLASTLATGVPSRFSGSGSGTDFTLTISSLQPEDFATYYCLGGGDDEADNTFGQGTKVEIKR | no binding (tested: below 10 RU cut-off; up to 1600 ng/ml) | 0.365 | 1.44 | 0.0191 | 0.11 | 0.19 | – | 2.78 | no binding | – | – | –
humanized anti-SIRPα antibody 11 (antibody, human IgG1, kappa, L234A L235A, V domains shown, human IgG1 LALA, kappa; also called mAb 11) VH: RQLVESGGGLVQPGGSLRLSCAASGFSLSSHGISWVRQAPGKGLEWVGTIGTGVITYYASWAKGRFTGSKTSSTAYLQMTSLRAEDTAVYYCARGSAWNDPFDYWGQGTLVTVSS VL: DIEMTQSPSSVSASVGDRVTLTCQASQSVYGNNDLAWYQQKPGQAPKLLIYLASTLATGVPSRFSGSGSGTDFTLTISSLQPEDFATYYCLGGGDDEADNVFGGGTKVEIKR | no binding (tested: below 10 RU cut-off; up to 1600 ng/ml) | 0.212 | 2.01 | 0.0349 | 0.08 | 0.11 | – | 3.73 | no binding | – | – | –
humanized anti-SIRPα antibody 1 (antibody, human IgG1, kappa, L234A L235A, human IgG1 LALA, kappa; also called mAb 1) heavy: not shown light: DIQMTQSPSSLSASVGDRVTITCRASQSINSYLAWYQQKPGKAPKLLIYSASFLYSGVPSRFSGSGSGTDFTLTISSLQPEDFATYYCQSWHYISRSYTFGQGTKVEIKRTVAAPSVFIFPPSDEQLKSGTASVVCLLNNFYPREAKVQWKVDNALQSGNSQESVTEQDSKDSTYSLSSTLTLSKADYEKHKVYACEVTHQGLSSPVTKSFNRGEC | no binding (tested: below 10 RU cut-off; up to 1600 ng/ml) | < 0.01 | – | 1.49 | 0.3 | 0.28 | no binding | 0.09 | – | 2.42 | 1.87 | 0.12
humanized anti-SIRPα antibody 2 (antibody, human IgG1, kappa, L234A L235A, human IgG1 LALA, kappa; also called mAb 2) heavy: not shown light: DIQMTQSPSSLSASVGDRVTITCRASQSINSYLAWYQQKPGKAPKLLIYSASFLYSGVPSRFSGSGSGTDFTLTISSLQPEDFATYYCQSWHYISRSYTFGQGTKVEIKRTVAAPSVFIFPPSDEQLKSGTASVVCLLNNFYPREAKVQWKVDNALQSGNSQESVTEQDSKDSTYSLSSTLTLSKADYEKHKVYACEVTHQGLSSPVTKSFNRGEC | no binding (tested: below 10 RU cut-off; up to 1600 ng/ml) | < 0.01 | – | 1.34 | 0.31 | 0.32 | no binding | 0.1 | – | 2.54 | 2.27 | 0.12
humanized anti-SIRPα antibody 3 (antibody, human IgG1, kappa, L234A L235A, human IgG1 LALA, kappa; also called mAb 3) heavy: not shown light: DIQMTQSPSSLSASVGDRVTITCRASQSINSYLAWYQQKPGKAPKLLIYSASFLYSGVPSRFSGSGSGTDFTLTISSLQPEDFATYYCQSWHYISRSYTFGQGTKVEIKRTVAAPSVFIFPPSDEQLKSGTASVVCLLNNFYPREAKVQWKVDNALQSGNSQESVTEQDSKDSTYSLSSTLTLSKADYEKHKVYACEVTHQGLSSPVTKSFNRGEC | no binding (tested: below 10 RU cut-off; up to 1600 ng/ml) | < 0.01 | – | 0.908 | 0.28 | 0.4 | no binding | 0.12 | – | 1.92 | 1.66 | 0.15
humanized anti-SIRPα antibody 4 (antibody, human IgG1, kappa, L234A L235A, human IgG1 LALA, kappa; also called mAb 4) heavy: not shown light: DIQMTQSPSSLSASVGDRVTITCRASQSINSYLAWYQQKPGKAPKLLIYSASFLYSGVPSRFSGSGSGTDFTLTISSLQPEDFATYYCQSWHYISRSYTFGQGTKVEIKRTVAAPSVFIFPPSDEQLKSGTASVVCLLNNFYPREAKVQWKVDNALQSGNSQESVTEQDSKDSTYSLSSTLTLSKADYEKHKVYACEVTHQGLSSPVTKSFNRGEC | no binding (tested: below 10 RU cut-off; up to 1600 ng/ml) | < 0.01 | – | 1.38 | 0.36 | 0.38 | no binding | 0.1 | – | 2.34 | 1.94 | 0.14
humanized anti-SIRPα antibody 12 (antibody, human IgG1, kappa, L234A L235A, human IgG1 LALA, kappa; also called mAb 12) heavy: not shown light: DIQMTQSPSSLSASVGDRVTITCRASQSINSYLAWYQQKPGKAPKLLIYSASFLYSGVPSRFSGSGSGTDFTLTISSLQPEDFATYYCQSWHYISRSYTFGQGTKVEIKRTVAAPSVFIFPPSDEQLKSGTASVVCLLNNFYPREAKVQWKVDNALQSGNSQESVTEQDSKDSTYSLSSTLTLSKADYEKHKVYACEVTHQGLSSPVTKSFNRGEC | no binding (tested: below 10 RU cut-off; up to 1600 ng/ml) | < 0.01 | – | 1.38 | 0.26 | 0.27 | – | 0.08 | no binding | 1.94 | 1.53 | 0.23
